The values that follow come from article PMC10461225, “Creation of a Peptide Antagonist of the GFRAL–RET Receptor Complex for the Treatment of GDF15-Induced Malaise” (Journal of Medicinal Chemistry, 2023).

Square brackets hold non-standard residues; d marks the D form. Ends that are not written are not given here. Peptide text beside a SMILES is read from it. PEG2‑C4‑alkyne‑biotin = PEG2-C4-alkyne-modified biotin; Lys(N3) = [N-]=[N+]=NCCCC[C@H](N)C(=O)O; K‑azido = azido-modified lysine

For data set [1], the target named is GFRAL ECD (Homo sapiens) (UniProt Q6UXV0). The note with it: cited from earlier work.
Data set [2] deals with Sprague–Dawley rats. How it is done: In a follow-up experiment, we evaluated responses to the gold standard antiemetic Ondansetron alone or in combination with GRASP to determine whether the combination would enhance the efficacy of the former compound in preventing CINV in rats.
All systemic treatments were delivered by intraperitoneal (IP) injection.
Rats (n = 98, 300–330 g) received IP injections of GRASP (100 nmol/kg), Ondansetron (2 mg/kg), both GRASP and Ondansetron together, or saline control […] before systemic administration of cisplatin. Six hours later, rats received a second injection of GRASP or vehicle control. Food and kaolin intake were measured at 3, 6, and 24 h postinjection.
All data were expressed as means ± SEM.

Data set [3] addresses T1, Recombinant His-tagged human GFRAL (Ser19–Glu351) (human, UniProt Q6UXV0 19-351).
T1 construct: GDNF family receptor alpha-like (GFRAL), human, extracellular domain S19-E351 as defined by UniProt Q6UXV0; also called GFRAL–ECD; GFRAL (S19–E351); source: bought: ACRO Biosystems (GFA-H52H3), expressed in HEK293 cells
T1 sequence (looked up): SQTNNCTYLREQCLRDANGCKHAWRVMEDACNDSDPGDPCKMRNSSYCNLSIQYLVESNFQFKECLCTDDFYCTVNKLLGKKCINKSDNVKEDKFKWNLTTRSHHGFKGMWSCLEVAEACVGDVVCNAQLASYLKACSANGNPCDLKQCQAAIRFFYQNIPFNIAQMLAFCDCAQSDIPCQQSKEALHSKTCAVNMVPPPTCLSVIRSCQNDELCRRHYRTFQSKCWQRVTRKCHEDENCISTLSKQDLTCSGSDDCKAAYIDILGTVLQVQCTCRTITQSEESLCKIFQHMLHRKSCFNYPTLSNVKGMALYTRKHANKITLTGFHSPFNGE
In words: SPR; GFRAL (S19-E351) immobilised by amine coupling (EDC/NHS) on a high-capacity carboxyl sensor (Nicoya OpenSPR); peptides or GDF15 as analyte; HBSS pH 7.4 running buffer without BSA; 20 uL/min. To be noted: both partners purified.

Data set [4] addresses T2, Full-length human GFRAL on stably transfected HEK293 cells (human, UniProt Q6UXV0 19-394).
T2 construct: GDNF family receptor alpha-like (GFRAL), human, full-length, overexpressed on HEK293 cells; also called GFRAL–HEK293 cells; GFRAL-expressing HEK293 cells; source: HEK293 cells stably overexpressing human GFRAL, bought: Creative Biogene (CSC-SC006226)
T2 sequence (looked up): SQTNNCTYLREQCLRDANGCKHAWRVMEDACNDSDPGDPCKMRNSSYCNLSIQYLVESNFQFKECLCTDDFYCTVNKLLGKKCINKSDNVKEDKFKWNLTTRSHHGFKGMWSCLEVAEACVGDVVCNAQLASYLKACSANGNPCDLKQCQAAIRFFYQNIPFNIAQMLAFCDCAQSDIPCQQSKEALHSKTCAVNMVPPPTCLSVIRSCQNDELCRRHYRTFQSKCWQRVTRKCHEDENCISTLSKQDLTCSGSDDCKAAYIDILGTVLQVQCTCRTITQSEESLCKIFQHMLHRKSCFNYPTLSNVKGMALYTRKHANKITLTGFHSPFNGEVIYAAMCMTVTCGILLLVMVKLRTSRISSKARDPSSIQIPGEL
The experiment in a line: flow cytometry on cells; GRASPCy5 (0.1-1000 nM) in HBSS pH 7.4, 30 min at 37 °C, on HEK293 cells stably overexpressing full-length human GFRAL; untransfected HEK293 cells as control. To be noted: one partner purified.

For data set [5], the target named is T1, Recombinant His-tagged human GFRAL …. In words: SPR; biotin-GRASP immobilised on a streptavidin-coated biotin sensor (Nicoya OpenSPR); GFRAL-ECD (20, 100, 200, 600 nM), GDF15 (1 uM) or RET (0.29 uM) as analyte; HBSS pH 7.4; 1:1 fit with local Bmax (TraceDrawer). The note with it: both partners purified.
Setting [6] is: GRASP 100 nmol/kg IP BID alone or with Ondansetron 2 mg/kg IP, no cisplatin.
Where [7] appears, read: GRASP 100 nmol/kg IP BID, Ondansetron 2 mg/kg IP, cisplatin 6 mg/kg IP, n = 10–16 per group.

As to GDF15 (from UniProt Q99988), the Kd in data set [1] was 1 nM. With `CC[C@H](C)[C@H](NC(=O)[C@H](CC(C)C)NC(=O)[C@H](CCC(=O)O)NC(=O)[C@H](CCC(=O)O)NC(=O)[C@H](CCCCN=[N+]=[N-])NC(=O)[C@@H](N)[C@@H](C)O)C(=O)N[C@@H](Cc1c[nH]cn1)C(=O)N[C@@H](C)C(=O)N[C@@H](Cc1c[nH]cn1)C(=O)N[C@@H](C)C(=O)N[C@@H](CC(=O)O)C(=O)N1CCC[C@H]1C(=O)N[C@@H](CCSC)C(=O)N[C@H](C(=O)N[C@@H](CC(C)C)C(=O)N[C@H](C(=O)N[C@@H](CCC(N)=O)C(=O)N[C@@H](CCCCN)C(=O)N[C@H](C(=O)N[C@@H](CC(=O)O)C(=O)N[C@H](C(=O)NCC(=O)N[C@H](C(=O)N[C@@H](CO)C(=O)N[C@@H](CC(C)C)C(=O)N[C@@H](CCC(N)=O)C(=O)N[C@H](C(=O)N[C@@H](Cc1ccc(O)cc1)C(=O)N[C@@H](CC(=O)O)C(N)=O)[C@@H](C)O)C(C)C)[C@@H](C)O)[C@@H](C)O)[C@@H](C)CC)C(C)C` [GRASP] (H-T[Lys(N3)]EELIHAHADPMVLIQKTDTGVSLQTYD-NH2), in data set [2] (setting [6]), the “impact on food or kaolin intake in healthy rats” value is reported as “had no impact on food or kaolin intake in healthy rats” and the “tolerability in healthy rats” value is “well-tolerated”. With `Cc1nccn1CC1CCc2c(c3ccccc3n2C)C1=O` (centres unmarked) [Ondansetron], in data set [2] (setting [7]), the “effect on cisplatin-induced anorexia” value is “Neither Ond (2 mg/kg of IP) nor GRASP (100 nmol/kg of IP [BID]) alone had any impact” and the “effect on cisplatin-induced kaolin intake” value is “significantly reduced cisplatin-induced kaolin intake”.

B1: GRASP (K2-azido-modified 29-amino acid peptide) (peptide)
peptide: T[K‑azido]EELIHAHADPMVLIQKTDTGVSLQTYD
notes: designed peptide with GDF15-like loop regions; printed as T(K-azido)[residues removed]; In-house synthesis was on a Rink amide resin, which would give a C-terminal amide; also called GFRAL receptor antagonist; unlabeled GRASP; source: synthetic peptide (Genscript or in-house solid-phase synthesis), HPLC purified to >95%
Consider B1, for which the Kd in data set [3] is 179000 nM.

B2: GRASPCy5 (peptide)
peptide: TKEELIHAHADPMVLIQKTDTGVSLQTYD
modifications: not fully specified (residue 2); printed as T(K-azido)EELIHAHADPMVLIQKTDTGVSLQTYD
notes: GRASP peptide as m1, sulfo-Cy5 on the azido-lysine at position 2; also called sulfo-Cy5 GRASP conjugate; GRASP(K2)–fluorophore conjugate; source: synthetic peptide, conjugated to DBCO-Cy5, RP-HPLC purified (95%)
Consider B2, for which the Kd in data set [4] turned out to be 8.98 nM.

B3: Biotinylated GRASP (peptide)
peptide: T[K‑azido](PEG2‑C4‑alkyne‑biotin)EELIHAHADPMVLIQKTDTGVSLQTYD
notes: GRASP peptide as m1, biotin on the azido-lysine at position 2; Held on the sensor through biotin-streptavidin (His-tagged streptavidin on a biotin sensor); also called biotin-conjugated GRASP; biotin-GRASP; source: synthetic peptide, conjugated to PEG2-C4-alkyne biotin, RP-HPLC purified (95%)
Take B3: the Kd in data set [5] amounted to 74.1 nM.
